# According to patent publication US20240301051A1 (BEIGENE SWITZERLAND, published 2024):
# T1: human claudin 9 (CLDN9) (human, UniProt O95484 1-217)
# T1 construct: also called human CLDN9
# T1 sequence: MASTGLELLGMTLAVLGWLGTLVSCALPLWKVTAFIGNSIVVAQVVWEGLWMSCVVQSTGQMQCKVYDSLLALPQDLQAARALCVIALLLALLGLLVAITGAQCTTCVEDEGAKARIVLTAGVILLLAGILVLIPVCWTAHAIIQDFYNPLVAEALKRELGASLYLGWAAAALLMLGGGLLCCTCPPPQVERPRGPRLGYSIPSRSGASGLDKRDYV
# T2: human claudin 6 (CLDN6) (human, UniProt P56747 1-220)
# T2 construct: also called human CLDN6; hCLDN6
# T2 sequence: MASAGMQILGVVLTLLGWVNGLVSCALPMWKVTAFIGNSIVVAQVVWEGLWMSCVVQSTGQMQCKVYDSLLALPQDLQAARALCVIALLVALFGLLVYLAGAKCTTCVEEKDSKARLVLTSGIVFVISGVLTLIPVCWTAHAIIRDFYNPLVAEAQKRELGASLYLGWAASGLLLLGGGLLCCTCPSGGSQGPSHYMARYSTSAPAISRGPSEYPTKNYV
# Columns and labels:
# human claudin 9 (CLDN9) = target: T1, human claudin 9 (CLDN9); test: flow cytometry on HEK293T/human CLDN9 cells (non-specific binding validation)
# human claudin 6 (CLDN6) = target: T2, human claudin 6 (CLDN6); test: flow cytometry on HEK293T/human CLDN6 cells
# Description: For affinity determination, CLDN6 over-expressing HEK293T cells and cancer cell line PA-1 which express high levels of human CLDN6 were used to evaluate the binding activity of BG87P related engineering variants. Live cells were seeded in 96-well plate, and were incubated with a series of dilutions of chBG87P and engineered variants thereof. Goat anti-human IgG was used as second antibody to detect antibody binding to the cell surface. EC50 values for dose-dependent binding to CLDN6 expressing cell lines were determined by fitting the dose-response data to the four-parameter logistic model with GraphPad Prism. Cell binding activity of 1st round of BG87P humanization variants against HEK293T/human CLDN6 were compared to chBG87P and shown in FIG. 1A.
binding result (human claudin 9 (CLDN9)),EC50 (read off the curve) (human claudin 6 (CLDN6)),Binder
no binding,,"BG87P-34 (antibody, V domains shown, Final lead clone, framework IGHV3-23 and IGKV1-39; also called BG87-34) VH: EVQLQESGGGLVQPGGSLRLSCAASGYSFSDYHINWVRQAPGKGLEWVGYIYPGSGHTKYNEKFKGRFTISRDTSSNTAYLQMNSLRAEDTAVYYCARSGIYHYVSSYYFDHWGQGTLVTVSS VL: DIQMTQSPSSLSASVGDRVTITCKASQDAGSAVAWYQQKPGKAPKLLIYWASTRHTGVPSRFSGSGSGTDFTLTISSLQPEDFATYYCQQYSSYTFGGGTKLEIK"
,~0.03 µM,"BG87P-33 (antibody, V domains shown, Framework-swapped variant; also called BG87-33) VH: EVQLQESGGGLVQPGGSLRLSCAASGYSFTDYHINWVRQAPGKGLEWVSYIYPGSGHTKYNEKFKGRFTISRDTSKNTAYLQMNSLRAEDTAVYYCARSGIYHYVSSYYFDHWGQGTLVTVSS VL: DIQMTQSPSTLSASVGDRVTITCKASQDAGSAVAWYQQKPGKAPKLLIYWASTRHTGVPSRFSGSGSGTEFTLTISSLQPDDFATYYCQQYSSYTFGGGTKVEIK"
